# Where “and” joins values, the source holds several entries; their conditions need not be identical. Equal values may be shown once.
# Tests used:
# BeKdgF = target: T1, BeKdgF (Bacteroides eggerthii, UniProt A0A380Z821); assay: loss of absorbance at […] nm, Michaelis-Menten fit, spontaneous conversion subtracted; assay type: biochemical; conditions: 50 mM HEPES, 150 mM NaCl, pH 7.0; 20 nM enzyme, no metal added; saturation not achieved (estimate); substrate made from polyM by BePL17
# T1 construct: gene DW701_08695; no signal peptide; theoretical mass 14,137 Da; locus tag BACEGG_03250 inferred from gene order in PUL BACEGG_03245-03254 (PL17 = BACEGG_03249)
# T1 sequence (A0A380Z821 1-114): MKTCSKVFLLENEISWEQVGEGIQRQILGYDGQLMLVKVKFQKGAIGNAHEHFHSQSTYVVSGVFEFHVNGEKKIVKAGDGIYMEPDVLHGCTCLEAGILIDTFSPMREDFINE
# Asp110 = assay: NMR; conditions: 25 °C; 25 mM NaCl; 20 mM HEPES (starting pH 7.2), pH adjusted with HCl/NaOH; Folded recombinant BeKdgF as purified, 0.26 mM, no substrate or ligand added; metal loading not given
# Asp102 = assay: NMR; conditions: 25 °C; 25 mM NaCl; 20 mM HEPES (starting pH 7.2), pH adjusted with HCl/NaOH; Folded recombinant BeKdgF as purified, 0.26 mM, no substrate or ligand added; metal loading not given
# Glu114 = assay: NMR; conditions: 25 °C; 25 mM NaCl; 20 mM HEPES (starting pH 7.2), pH adjusted with HCl/NaOH; Folded recombinant BeKdgF as purified, 0.26 mM, no substrate or ligand added; metal loading not given
# Glu17 = assay: NMR; conditions: 25 °C; 25 mM NaCl; 20 mM HEPES (starting pH 7.2), pH adjusted with HCl/NaOH; Folded recombinant BeKdgF as purified, 0.26 mM, no substrate or ligand added; metal loading not given
# Asp21 = assay: NMR; conditions: 25 °C; 25 mM NaCl; 20 mM HEPES (starting pH 7.2), pH adjusted with HCl/NaOH; Folded recombinant BeKdgF as purified, 0.26 mM, no substrate or ligand added; metal loading not given
# Glu66 = assay: NMR; conditions: 25 °C; 25 mM NaCl; 20 mM HEPES (starting pH 7.2), pH adjusted with HCl/NaOH; Folded recombinant BeKdgF as purified, 0.26 mM, no substrate or ligand added; metal loading not given
# Glu13 = assay: NMR; conditions: 25 °C; 25 mM NaCl; 20 mM HEPES (starting pH 7.2), pH adjusted with HCl/NaOH; Folded recombinant BeKdgF as purified, 0.26 mM, no substrate or ligand added; metal loading not given
# [1] = target: BeKdgF, KdgF-like metalloprotein from Bacteroides eggerthii DSM 20697 (Bacteroides eggerthii DSM 20697); assay: SEC-MALS; BeKdgF at 1 mg/mL, 40 ul on Superdex 200 Increase 10/300 GL, 50 mM HEPES, 150 mM NaCl, pH 7.7, ice-cold buffer, 0.5 ml/min; DAWN8+ detector; equilibrium of tetramer and dimer
# [2] = target: BeKdgF, KdgF-like metalloprotein from Bacteroides eggerthii DSM 20697 (Bacteroides eggerthii DSM 20697); assay: NMR 15N relaxation (rotational correlation time from T1/T2); 0.43 mM 13C-15N-labelled BeKdgF, 25 mM Na2HPO4 pH 7.2, 50 mM NaCl, 25 °C, 800 MHz
# [3] = target: BePL17, PL17 subfamily 2 alginate lyase from Bacteroides eggerthii DSM 20697 (Bacteroides eggerthii DSM 20697); assay: SEC; elution on HiLoad Superdex 200 pg 16/600; data not shown
substance,measurement,setting,value
4-deoxy-β-L-threo-hex-4-enopyranuronic acid [compound 1],Km,BeKdgF,1140 ± 560 µM
BeKdgF (KdgF-like cupin metalloprotein; annotated Unk3 in PULDB) (Bacteroides eggerthii DSM 20697),pKa,Asp110,5.5±0.2
same,pKa,Asp102,5.9 ± 0.1
same,pKa,Glu114,5.1±0.1 and 5.2±0.1
same,pKa,Glu17,4.9±0.1
same,pKa,Asp21,5.0±0.2
same,pKa,Glu66,5.6±0.1 and 5.1±0.2
same,pKa,Glu13,5.0 ± 0.2
"BeKdgF, KdgF-like metalloprotein from Bacteroides eggerthii DSM 20697 (enzyme)",percent of the protein as dimer,[1],93.5%
same,percent of the protein as tetramer,[1],6.5%
same,stoichiometry N,[1],4 and 2
same,stoichiometry N,[2],2
"BePL17, PL17 subfamily 2 alginate lyase from Bacteroides eggerthii DSM 20697 (enzyme)",stoichiometry N,[3],2

# From publication PMC11381880, “Action and cooperation in alginate degradation by three enzymes from the human gut bacterium Bacteroides eggerthii DSM 20697” (The Journal of Biological Chemistry, 2024)
